# Test results reported in article PMC5497592 (Biochemistry, 2011).
# Molecular target: the molecule itself
# Experiment: cross-linking
protein,measurement,value
"HpUreI, the urea channel from Helicobacter pylori (natural protein) MLGLVLLYVGIVLISNGICGLTKVDPKSTAVMNFFVGGLSIICNIVVITYSALHPTAPVEGAEDIAQVSHHLTSFYGPATGLLFGFTYLYAAINHTFGLDWRPYSWYSLFVAINTIPAAILSHYSDMLDDHKVLGITEGDWWAIIWLAWGVLWLTAFIENILKIPLGKFTPWLAIIEGILTAWIPAWLLFIQHWV",stoichiometry N,3
